# Measured values reported in paper PMC2169462 (The Journal of Cell Biology, 2001).
# B1: recombinant Kap121p (natural protein)
# chain: MSALPEEVNRTLLQIVQAFASPDNQIRSVAEKALSEEWITENNIEYLLTFLAEQAAFSQDTTVAALSAVLFRKLALKAPPSSKLMIMSKNITHIRKEVLAQIRSSLLKGFLSERADSIRHKLSDAIAECVQDDLPAWPELLQALIESLKSGNPNFRESSFRILTTVPYLITAVDINSILPIFQSGFTDASDNVKIAAVTAFVGYFKQLPKSEWSKLGILLPSLLNSLPRFLDDGKDDALASVFESLIELVELAPKLFKDMFDQIIQFTDMVIKNKDLEPPARTTALELLTVFSENAPQMCKSNQNYGQTLVMVTLIMMTEVSIDDDDAAEWIESDDTDDEEEVTYDHARQALDRVALKLGGEYLAAPLFQYLQQMITSTEWRERFAAMMALSSAAEGCADVLIGEIPKILDMVIPLINDPHPRVQYGCCNVLGQISTDFSPFIQRTAHDRILPALISKLTSECTSRVQTHAAAALVNFSEFASKDILEPYLDSLLTNLLVLLQSNKLYVQEQALTTIAFIAEAAKNKFIKYYDTLMPLLLNVLKVNNKDNSVLKGKCMECATLIGFAVGKEKFHEHSQELISILVALQNSDIDEDDALRSYLEQSWSRICRILGDDFVPLLPIVIPPLLITAKATQDVGLIEEEEAANFQQYPDWDVVQVQGKHIAIHTSVLDDKVSAMELLQSYATLLRGQFAVYVKEVMEEIALPSLDFYLHDGVRAAGATLIPILLSCLLAATGTQNEELVLLWHKASSKLIGGLMSEPMPEITQVYHNSLVNGIKVMGDNCLSEDQLAAFTKGVSANLTDTYERMQDRHGDGDEYNENIDEEEDFTDEDLLDEINKSIAAVLKTTNGHYLKNLENIWPMINTFLLDNEPILVIFALVVIGDLIQYGGEQTASMKNAFIPKVTECLISPDARIRQAASYIIGVCAQYAPSTYADVCIPTLDTLVQIVDFPGSKLEENRSSTENASAAIAKILYAYNSNIPNVDTYTANWFKTLPTITDKEAASFNYQFLSQLIENNSPIVCAQSNISAVVDSVIQALNERSLTEREGQTVISSVKKLLGFLPSSDAMAIFNRYPADIMEKVHKWFA
# B2: recombinant Kap95p (natural protein)
# chain: MSTAEFAQLLENSILSPDQNIRLTSETQLKKLSNDNFLQFAGLSSQVLIDENTKLEGRILAALTLKNELVSKDSVKTQQFAQRWITQVSPEAKNQIKTNALTALVSIEPRIANAAAQLIAAIADIELPHGAWPELMKIMVDNTGAEQPENVKRASLLALGYMCESADPQSQALVSSSNNILIAIVQGAQSTETSKAVRLAALNALADSLIFIKNNMEREGERNYLMQVVCEATQAEDIEVQAAAFGCLCKIMSLYYTFMKPYMEQALYALTIATMKSPNDKVASMTVEFWSTICEEEIDIAYELAQFPQSPLQSYNFALSSIKDVVPNLLNLLTRQNEDPEDDDWNVSMSAGACLQLFAQNCGNHILEPVLEFVEQNITADNWRNREAAVMAFGSIMDGPDKVQRTYYVHQALPSILNLMNDQSLQVKETTAWCIGRIADSVAESIDPQQHLPGVVQACLIGLQDHPKVATNCSWTIINLVEQLAEATPSPIYNFYPALVDGLIGAANRIDNEFNARASAFSALTTMVEYATDTVAETSASISTFVMDKLGQTMSVDENQLTLEDAQSLQELQSNILTVLAAVIRKSPSSVEPVADMLMGLFFRLLEKKDSAFIEDDVFYAISALAASLGKGFEKYLETFSPYLLKALNQVDSPVSITAVGFIADISNSLEEDFRRYSDAMMNVLAQMISNPNARRELKPAVLSVFGDIASNIGADFIPYLNDIMALCVAAQNTKPENGTLEALDYQIKVLEAVLDAYVGIVAGLHDKPEALFPYVGTIFQFIAQVAEDPQLYSEDATSRAAVGLIGDIAAMFPDGSIKQFYGQDWVIDYIKRTRSGQLFSQATKDTARWAREQQKRQLSL
# Biological target: His6-tagged human RanGTP Q69L (human, UniProt P62826 1-216, Q69L)
# Assay: pull-down
binder,measurement,value
B1,binding result,binds
B2,binding result,binds
